The subject of one data set is hTERT-HMEC. The experiment in a line: percentage of EdU-negative (G0-arrested) nuclei per well, 72 h; higher = more G0 arrest. To be noted: reference: sequence is the full UniProt precursor, the tested protein was the secreted form or ectodomain.
Another data set relates to MCF7. The description is as above. The note with it: reference: sequence is the full UniProt precursor, the tested protein was the secreted form or ectodomain.
Where [1] appears, read: protein concentration 0.0257143 µM.
Setting [2] is: protein concentration 0.257143 µM.
[3] abbreviates: protein concentration 0.0225 µM.
The mark [4] stands for this setting: protein concentration 0.03125 µM.
Setting [5] is: protein concentration 0.3125 µM.

± gives the standard deviation of the averaged measurements.
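Also: secreted proteins added to cultured cells, EdU pulse at the end, nuclei found by Hoechst imaging, EdU status from nuclear versus surrounding ring intensity ratio, PBS as neutral control.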

For the sequence “MALRRSMGRPGLPPLPLPPPPRLGLLLAALASLLLPESAAAGLKLMGAPVKLTVSQGQPVKLNCSVEGMEEPDIQWVKDGAVVQNLDQLYIPVSEQHWIGFLSLKSVERSDAGRYWCQVEDGGETEISQPVWLTVEGVPFFTVEPKDLAVPPNAPFQLSCEAVGPPEPVTIVWWRGTTKIGGPAPSPSVLNVTGVTQSTMFSCEAHNLKGLASSRTATVHLQALPAAPFNITVTKLSSSNASVAWMPGADGRALLQSCTVQVTQAPGGWEVLAVVVPVPPFTCLLRDLVPATNYSLRVRCANALGPSPYADWVPFQTKGLAPASAPQNLHAIRTDSGLILEWEEVIPEAPLEGPLGPYKLSWVQDNGTQDELTVEGTRANLTGWDPQKDLIVRVCVSNAVGCGPWSQPLVVSSHDRAGQQGPPHSRTSWVPVVLGVLTALVTAAALALILLRKRRKETRFGQAFDSVMARGEPAVHFRAARSFNRERPERIEATLDSLGISDELKEKLEDVLIPEQQFTLGRMLGKGEFGSVREAQLKQEDGSFVKVAVKMLKADIIASSDIEEFLREAACMKEFDHPHVAKLVGVSLRSRAKGRLPIPMVILPFMKHGDLHAFLLASRIGENPFNLPLQTLIRFMVDIACGMEYLSSRNFIHRDLAARNCMLAEDMTVCVADFGLSRKIYSGDYYRQGCASKLPVKWLALESLADNLYTVQSDVWAFGVTMWEIMTRGQTPYAGIENAEIYNYLIGGNRLKQPPECMEDVYDLMYQCWSADPKQRPSFTCLRMELENILGQLSVLSASQDPLYINIERAEEPTAGGSLELPGRDQPYSGAGDGSGMGAVGGTPSDCRYILTPGGLAEQPGQAEHQPESPLNETQRLLLLQQGLLPHSSC”, the “percentage of EdU-negative” value turned out to be 3.99 ± 0.11% in the data set on hTERT-HMEC (setting [1]), 5.87 ± 0.091% in the data set with hTERT-HMEC (setting [2]), 25.83 ± 0.093% with MCF7 (setting [1]) and 27.3 ± 1.4% with MCF7 (setting [2]).

As to “MALRVVRSVRALLCTLRAVPSPAAPCPPRPWQLGVGAVRTLRTGPALLSVRKFTEKHEWVTTENGIGTVGISNFAQEALGDVVYCSLPEVGTKLNKQDEFGALESVKAASELYSPLSGEVTEINEALAENPGLVNKSCYEDGWLIKMTLSNPSELDELMSEEAYEKYIKSIEE”, the “percentage of EdU-negative” value in the data set with hTERT-HMEC (setting [3]) was 4.5 ± 0.0069%; with hTERT-HMEC (protein concentration 0.225 µM), 10.4 ± 2.3%; in the data set on MCF7 (setting [3]), 25.5 ± 2.2%; with MCF7 (protein concentration 0.225 µM) it was 26.3 ± 3.4%.

In the case of “MALSFSLLMAVLVLSYKSICSLGCDLPQTHSLGNRRALILLAQMGRISHFSCLKDRHDFGFPEEEFDGHQFQKAQAISVLHEMIQQTFNLFSTEDSSAAWEQSLLEKFSTELYQQLNDLEACVIQEVGVEETPLMNEDSILAVRKYFQRITLYLTEKKYSPCAWEVVRAEIMRSLSFSTNLQKRLRRKD”, the “percentage of EdU-negative” value in the data set on hTERT-HMEC (setting [4]) came to 9.16 ± 2.3%; in the data set on hTERT-HMEC (setting [5]), 13.8 ± 2.7%; in the data set with MCF7 (setting [4]) it was 40.1 ± 1.1%; in the data set on MCF7 (setting [5]) it was 46.8 ± 1.5%.

On to “MALSFSLLMAVLVLSYKSICSLGCDLPQTHSLGNRRALILLAQMGRISHFSCLKDRYDFGFPQEVFDGNQFQKAQAISAFHEMIQQTFNLFSTKDSSAAWDETLLDKFYIELFQQLNDLEACVTQEVGVEEIALMNEDSILAVRKYFQRITLYLMGKKYSPCAWEVVRAEIMRSFSFSTNLQKGLRRKD”, for which the “percentage of EdU-negative” value with hTERT-HMEC (setting [4]) is 11.7 ± 1.5%; in the data set on hTERT-HMEC (setting [5]) it was 18.9 ± 0.54%; in the data set with MCF7 (setting [4]) it was 47.8 ± 1.4%; in the data set on MCF7 (setting [5]) it was 49.2 ± 3.4%.

Take “MALSFSLLMAVLVLSYKSICSLGCDLPQTHSLGNRRALILLAQMGRISPFSCLKDRHDFGFPQEEFDGNQFQKAQAISVLHEMIQQTFNLFSTKDSSATWEQSLLEKFSTELNQQLNDLEACVIQEVGVEETPLMNVDSILAVKKYFQRITLYLTEKKYSPCAWEVVRAEIMRSFSLSKIFQERLRRKE”: the “percentage of EdU-negative” value in the data set on hTERT-HMEC (setting [4]) was determined as 15.2 ± 2.2%; with hTERT-HMEC (setting [5]), 17.64 ± 0.089%; in the data set with MCF7 (setting [4]), 46.7 ± 0.98%; with MCF7 (setting [5]), 47.89 ± 0.27%.

Regarding “MALSWVLTVLSLLPLLEAQIPLCANLVPVPITNATLDRITGKWFYIASAFRNEEYNKSVQEIQATFFYFTPNKTEDTIFLREYQTRQNQCFYNSSYLNVQRENGTVSRYEGGREHVAHLLFLRDTKTLMFGSYLDDEKNWGLSFYADKPETTKEQLGEFYEALDCLCIPRSDVMYTDWKKDKCEPLEKQHEKERKQEEGES”, the “percentage of EdU-negative” value in the data set on hTERT-HMEC (setting [3]) amounted to 4.9 ± 0.092%; in the data set with hTERT-HMEC (protein concentration 0.225 µM) it was 5.06 ± 0.15%; in the data set with MCF7 (setting [3]), 25.4 ± 2.9%; in the data set with MCF7 (protein concentration 0.225 µM), 25.1 ± 3.5%.

Take “MALTAHPSCLLALLVAGLAQGIRGPLRAQDLGPQPLELKEAFKLFQIQFNRSYLSPEEHAHRLDIFAHNLAQAQRLQEEDLGTAEFGVTPFSDLTEEEFGQLYGYRRAAGGVPSMGREIRSEEPEESVPFSCDWRKVASAISPIKDQKNCNCCWAMAAAGNIETLWRISFWDFVDVSVQELLDCGRCGDGCHGGFVWDAFITVLNNSGLASEKDYPFQGKVRAHRCHPKKYQKVAWIQDFIMLQNNEHRIAQYLATYGPITVTINMKPLQLYRKGVIKATPTTCDPQLVDHSVLLVGFGSVKSEEGIWAETVSSQSQPQPPHPTPYWILKNSWGAQWGEKGYFRLHRGSNTCGITKFPLTARVQKPDMKPRVSCPP”: the “percentage of EdU-negative” value worked out at 4.63 ± 1.3% in the data set on hTERT-HMEC (setting [3]), 48.2 ± 4% with hTERT-HMEC (protein concentration 0.225 µM), 23.2 ± 3.5% in the data set on MCF7 (setting [3]) and 32.1 ± 4.7% in the data set with MCF7 (protein concentration 0.225 µM).
